No end group written: not given here.
B1: biotinylated LL-37 (BA-LL37) (peptide)
peptide: LLGDFFRKSKEKIGKEFKRIVQRIKDFLRNLVPRTES
modifications: also: biotinylated (site not given here)
notes: LL-37, the mature 37-residue C-terminal peptide cut from human cathelicidin by proteinase-3; biotinylated; Detected or captured by its biotin (SA-HRP, SA-DTAF, streptavidin-agarose); source: synthetic peptide (MDBio, Inc.), 95% pure

Tests used:
[1] = molecular target: T1, Xog1p, cell-wall β-1,3-exoglucanase of C. albicans (endogenous) (C. albicans (endogenous in SC5314)) (UniProt P29717)
T1 sequence: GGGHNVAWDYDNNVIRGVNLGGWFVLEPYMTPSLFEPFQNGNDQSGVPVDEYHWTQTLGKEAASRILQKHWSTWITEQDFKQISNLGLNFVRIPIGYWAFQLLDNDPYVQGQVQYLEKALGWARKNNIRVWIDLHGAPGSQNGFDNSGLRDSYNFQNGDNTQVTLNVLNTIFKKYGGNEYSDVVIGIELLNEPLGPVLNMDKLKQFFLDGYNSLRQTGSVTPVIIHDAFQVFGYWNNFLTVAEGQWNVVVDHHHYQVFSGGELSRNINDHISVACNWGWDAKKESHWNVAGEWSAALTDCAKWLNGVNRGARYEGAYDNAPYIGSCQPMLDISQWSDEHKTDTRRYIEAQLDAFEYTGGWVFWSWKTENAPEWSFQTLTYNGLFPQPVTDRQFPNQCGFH

[2] = molecular target: T2, Xog1_(90–115) (residues 90–115 from Xog1p) (C. albicans); assay: ELISA; Xog1_(90–115) (5 µg) coated on wells; BA-LL37 0.01–5 µg/ml in 0.1% TBST, room temperature 1 h; SA-HRP, A450; settings: both partners purified
T2 construct: Residues 90–115 of C. albicans cell-wall β-1,3-exoglucanase Xog1p; also called Xog1p_(90–115); source: synthetic peptide (MDBio, Inc.)
T2 peptide: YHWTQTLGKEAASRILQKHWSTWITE

[3] = molecular target: T3, soluble His-tagged recombinant Xog1p (rXog1p) (C. albicans, UniProt P29717 41-438); assay: pull-down; streptavidin-agarose, BA-LL37 (bait) and purified rXog1p in TBS, room temperature 2 h; six washes with TBS; Tricine SDS-PAGE, Coomassie Blue; settings: both partners purified
T3 construct: An initiator Met comes from the NdeI site; No tag removal is described; also called full-length rXog1p; not shown: His tag (detected with anti-His6)
T3 sequence: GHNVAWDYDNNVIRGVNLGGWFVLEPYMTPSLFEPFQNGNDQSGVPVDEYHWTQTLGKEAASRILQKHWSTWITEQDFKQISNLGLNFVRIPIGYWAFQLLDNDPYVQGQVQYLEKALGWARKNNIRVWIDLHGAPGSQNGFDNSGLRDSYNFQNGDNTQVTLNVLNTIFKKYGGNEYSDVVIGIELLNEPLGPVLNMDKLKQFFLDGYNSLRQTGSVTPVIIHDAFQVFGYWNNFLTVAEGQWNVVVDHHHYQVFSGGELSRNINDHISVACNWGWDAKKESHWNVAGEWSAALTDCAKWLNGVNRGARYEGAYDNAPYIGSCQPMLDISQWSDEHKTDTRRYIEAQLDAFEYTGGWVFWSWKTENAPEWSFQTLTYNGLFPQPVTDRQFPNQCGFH

| Binder | inhibition of C. albicans adhesion to polystyrene (XTT reduction) at 5 µg/ml (∼1.1 µM) LL-37 [1] | binding result [2] | binding result [3] |
| --- | --- | --- | --- |
| LLGDFFRKSKEKIGKEFKRIVQRIKDFLRNLVPRTES [LL-37 (human cathelicidin antimicrobial peptide)] | 70% |  |  |
| B1 |  | binds | binds |

From article PMC3119699, “Characterizing the Role of Cell-Wall β-1,3-Exoglucanase Xog1p in Candida albicans Adhesion by the Human Antimicrobial Peptide LL-37” (PLoS ONE, 2011)
